Biological target: Ptch1 variant △893-899/T903A/K904A/Q905A/N1000Q (human) (UniProt Q13635)
Test: not stated; Ptch1 variant alone or in complex with ShhNp; Supplementary Fig. 8c

stoichiometry N: 4
Substance: Ptch1 variant △893-899/T903A/K904A/Q905A/N1000Q (from UniProt Q13635 1-1305) (receptor)
